For one series, the target named is T1, Dt2-6xHis (soybean; cultivar of the cloned CDS not …, UniProt I1N4Q7 1-253).
T1 sequence: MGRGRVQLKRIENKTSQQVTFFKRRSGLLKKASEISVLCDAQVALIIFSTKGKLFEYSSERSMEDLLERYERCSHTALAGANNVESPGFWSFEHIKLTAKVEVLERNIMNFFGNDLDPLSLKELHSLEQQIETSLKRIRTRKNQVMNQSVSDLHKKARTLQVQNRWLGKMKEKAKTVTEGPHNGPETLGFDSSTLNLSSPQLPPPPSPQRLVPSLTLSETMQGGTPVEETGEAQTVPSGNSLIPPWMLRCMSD
In words: EMSA; DIG Gel Shift Kit (Roche 3353591910), manufacturer's instructions; buffer, salt, pH and temperature not stated. Particulars: protein: recombinant; tags: 6xHis (pET-DEST42); chain copies: 2; label: digoxigenin; blunt. (In general: Mobility shift assays separate free from complexed probe on a gel.)

The next series deals with GmSOC1-6xHis (soybean; cultivar of the cloned CDS not …, UniProt A0A2K7FY55 1-209). Described as above. To be noted: protein: recombinant; tags: 6xHis (pET-DEST42); chain copies: 2; label: digoxigenin; blunt.

Three molecules from PMC4726468, “Innovation of a Regulatory Mechanism Modulating Semi-determinate Stem Growth through Artificial Selection in Soybean” can be followed below.

Chain of GmSOC1-6xHis (A0A2K7FY55 entry or part of it): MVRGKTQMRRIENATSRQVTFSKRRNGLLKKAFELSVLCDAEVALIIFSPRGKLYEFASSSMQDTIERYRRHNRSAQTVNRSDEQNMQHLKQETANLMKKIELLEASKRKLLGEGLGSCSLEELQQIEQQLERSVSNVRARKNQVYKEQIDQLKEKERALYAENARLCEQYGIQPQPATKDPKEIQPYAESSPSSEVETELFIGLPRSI

B1: Dt1-CArG2 (dsDNA)
DNA 1: CTTATACCAAAATAAGCAACTAAC
DNA 2: GTTAGTTGCTTATTTTGGTATAAG
With B1, the binding result with Dt2-6xHis is reported as “binds”.

B2: Dt1-CArG5 (dsDNA)
DNA 1: TCTTTTACCAATATTGGAACTTGG
DNA 2: CCAAGTTCCAATATTGGTAAAAGA
Take B2: the binding result with GmSOC1-6xHis and with Dt2-6xHis was “binds” throughout.

B3: Dt1-CArG1 (dsDNA)
DNA 1: AATATCCAAATTTAGAAATATG
DNA 2: CATATTTCTAAATTTGGATATT
As to B3, the binding result in the series with Dt2-6xHis is reported as “binds”.
